Test results reported in PMC11301080.

Biological target: recombinant HIV-1 gp120 ZM109 (HIV-1)
Assay: BLI

| Substance | Kd [nM] |
| --- | --- |
| Streptococcal Siglec-like lectin SLBR-N, GST-tagged (domain or fragment) | 40.3 |
| recombinant FimH protein, lectin domain only (from UniProt P08191 22-179) (domain or fragment) | 360 |
